Measured values: patent US20260193356A1

How the values were obtained:
[1] = target: dog (Canis lupus) PDL1 (dPDL1) expressed on CHO-S cells (CHO-S-dPDL1) (dog (Canis lupus)); experiment: flow cytometry on CHO-S-dPDL1 cells; antibody 1 µg/mL
[2] = target: mouse (Mus musculu) PDL1 (mPDL1) expressed on CHO-S cells (CHO-S-mPDL1) (mouse) (UniProt Q9EP73); experiment: flow cytometry on CHO-S-mPDL1 cells; antibody 0.1 µg/mL
[3] = target: monkey (Macaca fascicularis) PDL1 (fasPDL1) expressed on CHO-S cells (CHO-S-fasPDL1) (monkey (Macaca fascicularis)); experiment: flow cytometry on CHO-S-fasPDL1 cells; antibody 1 µg/mL
monkey (Macaca fascicularis) PDL1 (fasPDL1) expressed on CHO-S cells (CHO-S-fasPDL1) (monkey (Macaca fascicularis)), sequence (Q9NZQ7 other isoform, or with tags, fused parts or gaps limits assumed): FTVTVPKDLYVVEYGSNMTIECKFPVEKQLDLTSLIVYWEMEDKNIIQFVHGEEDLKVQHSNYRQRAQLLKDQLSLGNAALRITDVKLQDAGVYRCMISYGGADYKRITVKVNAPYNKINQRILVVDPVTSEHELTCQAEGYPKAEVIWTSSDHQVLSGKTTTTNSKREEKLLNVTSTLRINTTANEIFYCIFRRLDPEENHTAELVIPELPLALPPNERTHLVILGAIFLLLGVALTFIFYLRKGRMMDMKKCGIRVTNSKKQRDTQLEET

[4] = target: mouse (Mus musculu) PDL1 (mPDL1) expressed on CHO-S cells (CHO-S-mPDL1) (mouse) (UniProt Q9EP73); experiment: flow cytometry on CHO-S-mPDL1 cells; antibody 1 µg/mL
[5] = target: dog (Canis lupus) PDL1 (dPDL1) expressed on CHO-S cells (CHO-S-dPDL1) (dog (Canis lupus)); experiment: flow cytometry on CHO-S-dPDL1 cells; antibody 0.1 µg/mL
[6] = target: monkey (Macaca fascicularis) PDL1 (fasPDL1) expressed on CHO-S cells (CHO-S-fasPDL1) (monkey (Macaca fascicularis)); experiment: flow cytometry on CHO-S-fasPDL1 cells; antibody 0.1 µg/mL
[7] = target: human PDL1 (hPDL1) expressed on CHO-S cells (CHO-S-hPDL1) (human) (UniProt Q9NZQ7); experiment: flow cytometry on CHO-S-hPDL1 cells; antibody 0.1 µg/mL
human PDL1 (hPDL1) expressed on CHO-S cells (CHO-S-hPDL1) (human), sequence (Q9NZQ7 19-290 limits assumed): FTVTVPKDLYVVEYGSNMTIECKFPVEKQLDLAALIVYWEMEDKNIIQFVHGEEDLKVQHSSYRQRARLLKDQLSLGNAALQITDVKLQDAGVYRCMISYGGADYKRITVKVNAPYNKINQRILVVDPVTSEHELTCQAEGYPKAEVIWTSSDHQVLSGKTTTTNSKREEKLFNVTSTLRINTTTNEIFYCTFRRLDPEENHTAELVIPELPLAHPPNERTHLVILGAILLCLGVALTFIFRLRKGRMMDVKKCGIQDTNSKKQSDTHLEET

[8] = target: human PDL1 (hPDL1) expressed on CHO-S cells (CHO-S-hPDL1) (human) (UniProt Q9NZQ7); experiment: flow cytometry on CHO-S-hPDL1 cells; antibody 1 µg/mL
[9] = target: human PDL1 (hPDL1) expressed on CHO-S cells (CHO-S-hPDL1) (human) (UniProt Q9NZQ7); experiment: flow cytometry on CHO-S-hPDL1 cells, secondary antibody only; 1 µg/mL
[10] = target: mouse (Mus musculu) PDL1 (mPDL1) expressed on CHO-S cells (CHO-S-mPDL1) (mouse) (UniProt Q9EP73); experiment: flow cytometry on CHO-S-mPDL1 cells, secondary antibody only; 0.1 µg/mL
[11] = target: monkey (Macaca fascicularis) PDL1 (fasPDL1) expressed on CHO-S cells (CHO-S-fasPDL1) (monkey (Macaca fascicularis)); experiment: flow cytometry on CHO-S-fasPDL1 cells, secondary antibody only; 0.1 µg/mL
[12] = target: mouse (Mus musculu) PDL1 (mPDL1) expressed on CHO-S cells (CHO-S-mPDL1) (mouse) (UniProt Q9EP73); experiment: flow cytometry on CHO-S-mPDL1 cells, secondary antibody only; 1 µg/mL
[13] = target: dog (Canis lupus) PDL1 (dPDL1) expressed on CHO-S cells (CHO-S-dPDL1) (dog (Canis lupus)); experiment: flow cytometry on CHO-S-dPDL1 cells, secondary antibody only; 0.1 µg/mL
[14] = target: dog (Canis lupus) PDL1 (dPDL1) expressed on CHO-S cells (CHO-S-dPDL1) (dog (Canis lupus)); experiment: flow cytometry on CHO-S-dPDL1 cells, secondary antibody only; 1 µg/mL
[15] = target: human PDL1 (hPDL1) expressed on CHO-S cells (CHO-S-hPDL1) (human) (UniProt Q9NZQ7); experiment: flow cytometry on CHO-S-hPDL1 cells, secondary antibody only; 0.1 µg/mL
[16] = target: monkey (Macaca fascicularis) PDL1 (fasPDL1) expressed on CHO-S cells (CHO-S-fasPDL1) (monkey (Macaca fascicularis)); experiment: flow cytometry on CHO-S-fasPDL1 cells, secondary antibody only; 1 µg/mL

dog (Canis lupus) PDL1 (dPDL1) expressed on CHO-S cells (CHO-S-dPDL1) (dog (Canis lupus)), sequence (chain, as listed by the source limits assumed, form in doubt): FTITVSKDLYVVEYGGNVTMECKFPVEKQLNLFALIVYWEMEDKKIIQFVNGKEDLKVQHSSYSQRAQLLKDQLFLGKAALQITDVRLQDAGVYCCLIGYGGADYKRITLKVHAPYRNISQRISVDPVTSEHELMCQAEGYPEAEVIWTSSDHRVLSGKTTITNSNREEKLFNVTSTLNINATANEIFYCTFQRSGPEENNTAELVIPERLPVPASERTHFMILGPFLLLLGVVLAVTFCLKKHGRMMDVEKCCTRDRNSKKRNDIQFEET
mouse (Mus musculu) PDL1 (mPDL1) expressed on CHO-S cells (CHO-S-mPDL1) (mouse), sequence (Q9EP73 19-290 limits assumed): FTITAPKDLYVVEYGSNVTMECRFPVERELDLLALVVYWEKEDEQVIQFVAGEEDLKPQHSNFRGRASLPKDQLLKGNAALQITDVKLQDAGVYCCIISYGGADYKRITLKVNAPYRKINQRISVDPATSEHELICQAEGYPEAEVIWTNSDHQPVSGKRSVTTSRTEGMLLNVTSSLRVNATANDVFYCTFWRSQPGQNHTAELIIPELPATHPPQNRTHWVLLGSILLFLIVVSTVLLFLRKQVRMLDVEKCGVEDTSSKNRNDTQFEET

| Substance | Percentage of Positive Cells (%) [1] [%] | Percentage of Positive Cells (%) [2] [%] | Percentage of Positive Cells (%) [3] [%] | Percentage of Positive Cells (%) [4] [%] | Percentage of Positive Cells (%) [5] [%] | Percentage of Positive Cells (%) [6] [%] | Percentage of Positive Cells (%) [7] [%] | Percentage of Positive Cells (%) [8] [%] | Percentage of Positive Cells (%) [9] [%] | Percentage of Positive Cells (%) [10] [%] | Percentage of Positive Cells (%) [11] [%] | Percentage of Positive Cells (%) [12] [%] | Percentage of Positive Cells (%) [13] [%] | Percentage of Positive Cells (%) [14] [%] | Percentage of Positive Cells (%) [15] [%] | Percentage of Positive Cells (%) [16] [%] |
| --- | --- | --- | --- | --- | --- | --- | --- | --- | --- | --- | --- | --- | --- | --- | --- | --- |
| ISO (isotype control, antibody with the same IgG1 subtype but targeting an unrelated target) | 4.28 | 2.26 | 2.53 | 3.52 | 14.2 | 1.87 | 2.01 | 3.05 | – | – | – | – | – | – | – | – |
| secondary antibody anti-hIgG-Fc-Alex Flour 647 (RL1-H) (Jackson ImmunoResearch Laboratories, Inc., 109-606-170) | – | – | – | – | – | – | – | – | 1.13 | 1.04 | 1.38 | 2.31 | 1.68 | 1.76 | 1.48 | 2.34 |
